Among the data in article PMC9313131 are stoichiometry N and Kd values, retold here.

CDC37 (cell division cycle 37), wild type, full-length (human), sequence (Q16543 whole entry, the tested form may be a part): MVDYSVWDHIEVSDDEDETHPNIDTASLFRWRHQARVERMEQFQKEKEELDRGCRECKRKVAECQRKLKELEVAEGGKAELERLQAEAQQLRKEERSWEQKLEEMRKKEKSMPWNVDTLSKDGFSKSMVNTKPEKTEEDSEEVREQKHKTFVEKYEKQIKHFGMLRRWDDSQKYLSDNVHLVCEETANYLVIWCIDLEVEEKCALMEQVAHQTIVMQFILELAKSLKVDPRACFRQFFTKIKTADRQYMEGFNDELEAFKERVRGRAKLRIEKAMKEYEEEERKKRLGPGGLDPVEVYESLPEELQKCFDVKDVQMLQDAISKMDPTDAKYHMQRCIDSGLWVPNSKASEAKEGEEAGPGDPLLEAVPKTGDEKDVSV

One assay has as its target sBRAF L597R (human) (UniProt P15056). The assay is described as follows: SEC; Superdex 200 Increase 10/300 GL; 50 mM HEPES pH 7.5, 300 mM NaCl, 0.5 mM TCEP, 1 mM EDTA; relative molecular mass against gel-filtration standards. (In general: Size exclusion chromatography separates by hydrodynamic size, large species first.)
“sBRAF L597R (from UniProt P15056 423-723) (domain or fragment)” returned a stoichiometry N of 2.

Another assay addresses CDC37 (cell division cycle 37), wild type, full-length (human) (UniProt Q16543). Put plainly: ITC; in most cases sBRAF construct at 350 μM injected into 30 μM CDC37 at 20 °C; 20 mM Tris pH 7.5, 1 mM EDTA, 200 mM NaCl; ITC200. Background: In ITC the heat of successive injections is recorded.
In turn, “sBRAF F595A (from UniProt P15056 423-723) (domain or fragment)” gave a dissociation constant (Kd) of 500 nM.

As for “sBRAF L597R-V600E (from UniProt P15056 423-723) (domain or fragment)”, the Kd stood at 340 nM. “sBRAF L597A (from UniProt P15056 423-723) (domain or fragment)”: the Kd amounted to 230 nM. For the substance “sBRAF D594V (from UniProt P15056 423-723) (domain or fragment)”, the Kd was determined as 1200 nM. On the same count and under the same terms, in the case of “sBRAF, solubilized version of BRAF kinase domain (residues 423-723), V600 background (from UniProt P15056 423-723) (domain or fragment)” it was 1000 nM; in that of “sBRAF T599W-V600E (from UniProt P15056 423-723) (domain or fragment)”, 230 nM; in that of “sBRAF F595V (from UniProt P15056 423-723) (domain or fragment)”, 1400 nM. As for “sBRAF T599E-V600E-S602D (from UniProt P15056 423-723) (domain or fragment)”, the Kd was 470 nM.

Usually stoichiometry N stands for the number of molecules, sites or subunits per partner or assembly. As usually defined, the Kd is the equilibrium constant for the complex coming apart. The low end stands for tighter binding, the high end for weaker binding.
